Sequences and labels used below:
B1: Cytochrome c-551, P00099 (parent)
chain: MKPYALLSLLATGTLLAQGAWAEDPEVLFKNKGCVACHAIDTKMVGPAYKDVAAKFAGQAGAEAELAQRIKNGSQGVWGPIPMPPNAVSDDEAQTLAKWVLSQK

This data set covers variants of B1. The conditions noted are these: Pseudomonas aeruginosa (strain ATCC 15692 / DSM 22644 / CIP 104116 / JCM 14847 / LMG 12228 / 1C / PRS 101 / PAO1), 25 °C, GdnHCl, CD, Sodium acetate 20 mM, structure 451C, whole UniProt chain shown.

For MKPYALLSLLATGTLLAQGAWAEDPEVLFKNKGCVACHAIDTKMVGPAYKDVAAKYAGQAGAEAYLAQRIKNGSQGVWGPIPMPPNAVSDDEAQTLAKWILSQK, for the setting “pH 3.6”, the “ddG of mutation (higher = less stable)” value is -1.63 kcal/mol, the denaturant m value came to 2.57 kcal/mol/M, the “denaturant midpoint (higher = more stable)” value (“denaturant midpoint” below) amounted to 2.25 M and the unfolding free energy worked out at 5.77 kcal/mol. Under “pH 5”, the “ddG of mutation (higher = less stable)” value was -2.95 kcal/mol, the denaturant m value amounted to 2.44 kcal/mol/M, the “denaturant midpoint” value worked out at 3.44 M and the unfolding free energy turned out to be 8.39 kcal/mol.

MKPYALLSLLATGTLLAQGAWAEDPEVLFKNKGCVACHAIDTKMVGPAYKDVAAKYAGQAGAEAELAQRIKNGSQGVWGPIPMPPNAVSDDEAQTLAKWVLSQK: under “pH 3.6”, the “ddG of mutation (higher = less stable)” value was -0.28 kcal/mol, the denaturant m value is 2.76 kcal/mol/M, the “denaturant midpoint” value is 1.6 M and the unfolding free energy came to 4.41 kcal/mol. Besides, for the setting “pH 5”, the “ddG of mutation (higher = less stable)” value was -1.33 kcal/mol, the denaturant m value stood at 2.67 kcal/mol/M, the “denaturant midpoint” value was 2.54 M and the unfolding free energy stood at 6.78 kcal/mol.

As to MKPYALLSLLATGTLLAQGAWAEDPEVLAKNKGCMACHAIDTKMVGPAYKDVAAKFAGQAGAEAELAQRIKNGSQGVWGPIPMPPNAVSDDEAQTLAKWVLSQK, under “pH 3.6”, the “ddG of mutation (higher = less stable)” value was -1.45 kcal/mol, the denaturant m value worked out at 2.56 kcal/mol/M, the “denaturant midpoint” value is 2.18 M and the unfolding free energy amounted to 5.58 kcal/mol. Further, under “pH 5”, the “ddG of mutation (higher = less stable)” value was -1.92 kcal/mol, the denaturant m value turned out to be 2.57 kcal/mol/M, the “denaturant midpoint” value turned out to be 2.87 M and the unfolding free energy was 7.37 kcal/mol.

For the variant MKPYALLSLLATGTLLAQGAWAEDPEVLFKNKGCVACHAIDTKMVGPAYKDVAAKFAGQAGAEAELAQRIKNGSQGVWGPIPMPPNAVSDDEAQTLAKWILSQK, where the note is “pH 3.6”, the “ddG of mutation (higher = less stable)” value was -1.05 kcal/mol, the denaturant m value is 2.74 kcal/mol/M, the “denaturant midpoint” value was found to be 1.89 M and the unfolding free energy came to 5.18 kcal/mol. For the setting “pH 5”, the “ddG of mutation (higher = less stable)” value is -1.49 kcal/mol, the denaturant m value turned out to be 2.74 kcal/mol/M, the “denaturant midpoint” value came out at 2.53 M and the unfolding free energy is 6.93 kcal/mol.

As to MKPYALLSLLATGTLLAQGAWAEDPEVLAKNKGCMACHAIDTKMVGPAYKDVAAKYAGQAGAEAYLAQRIKNGSQGVWGPIPMPPNAVSDDEAQTLAKWILSQK, where the note is “pH 3.6”, the “ddG of mutation (higher = less stable)” value was -3.34 kcal/mol, the denaturant m value was found to be 2.54 kcal/mol/M, the “denaturant midpoint” value is 2.95 M and the unfolding free energy turned out to be 7.48 kcal/mol. Further, where the note is “pH 5”, the “ddG of mutation (higher = less stable)” value is -4.78 kcal/mol, the denaturant m value worked out at 2.44 kcal/mol/M, the “denaturant midpoint” value was 4.2 M and the unfolding free energy turned out to be 10.2 kcal/mol.

As for MKPYALLSLLATGTLLAQGAWAEDPEVLFKNKGCVACHAIDTKMVGPAYKDVAAKYAGQAGAEAYLAQRIKNGSQGVWGPIPMPPNAVSDDEAQTLAKWVLSQK, under “pH 3.6”, the “ddG of mutation (higher = less stable)” value was -0.72 kcal/mol, the denaturant m value amounted to 2.7 kcal/mol/M, the “denaturant midpoint” value turned out to be 1.8 M and the unfolding free energy came to 4.85 kcal/mol. In addition, where the note is “pH 5”, the “ddG of mutation (higher = less stable)” value was -2.27 kcal/mol, the denaturant m value was 2.68 kcal/mol/M, the “denaturant midpoint” value was 2.88 M and the unfolding free energy stood at 7.71 kcal/mol.

Turning to MKPYALLSLLATGTLLAQGAWAEDPEVLAKNKGCMACHAIDTKMVGPAYKDVAAKYAGQAGAEAYLAQRIKNGSQGVWGPIPMPPNAVSDDEAQTLAKWVLSQK, under “pH 3.6”, the “ddG of mutation (higher = less stable)” value was -2.39 kcal/mol, the denaturant m value was determined as 2.52 kcal/mol/M, the “denaturant midpoint” value stood at 2.59 M and the unfolding free energy was 6.52 kcal/mol. Further, where the note is “pH 5”, the “ddG of mutation (higher = less stable)” value was -3.76 kcal/mol, the denaturant m value worked out at 2.43 kcal/mol/M, the “denaturant midpoint” value was determined as 3.78 M and the unfolding free energy came out at 9.21 kcal/mol.

On to MKPYALLSLLATGTLLAQGAWAEDPEVLAKNKGCMACHAIDTKMVGPAYKDVAAKFAGQAGAEAELAQRIKNGSQGVWGPIPMPPNAVSDDEAQTLAKWILSQK, for which, where the note is “pH 3.6”, the “ddG of mutation (higher = less stable)” value was -1.9 kcal/mol, the denaturant m value was determined as 2.45 kcal/mol/M, the “denaturant midpoint” value turned out to be 2.46 M and the unfolding free energy amounted to 6.04 kcal/mol. Moreover, for the setting “pH 5”, the “ddG of mutation (higher = less stable)” value was -2.29 kcal/mol, the denaturant m value was 2.47 kcal/mol/M, the “denaturant midpoint” value worked out at 3.13 M and the unfolding free energy amounted to 7.74 kcal/mol.

Turning to MKPYALLSLLATGTLLAQGAWAEDPEVLFKNKGCVACHAIDTKMVGPAYKDVAAKFAGQAGAEAYLAQRIKNGSQGVWGPIPMPPNAVSDDEAQTLAKWVLSQK, for the setting “pH 3.6”, the “ddG of mutation (higher = less stable)” value is -0.09 kcal/mol, the denaturant m value is 2.88 kcal/mol/M, the “denaturant midpoint” value turned out to be 1.46 M and the unfolding free energy amounted to 4.23 kcal/mol. Further, for the setting “pH 5”, the “ddG of mutation (higher = less stable)” value was -1.13 kcal/mol, the denaturant m value turned out to be 3.1 kcal/mol/M, the “denaturant midpoint” value is 2.12 M and the unfolding free energy was 6.57 kcal/mol.

For the origin of these results see FireProtDB (doi:10.1016/j.bpc.2008.09.020).
